Measured values as given in the RNAGym collection of RNA variant scans (doi:10.7554/elife.80360).

B1: Hairpin Ribozyme (parent)
chain: GUCCUCUUUCACGUGCGCGUGAAAGAGAGAAGUGAACCAGAGAAACACACGUUGUGGUAUAUUACCUGGUA

Variants of: B1
Assay: self-cleavage, relative activity (ratio to wild type); higher = more cleavage; co-transcriptional

Variant	self-cleavage
GUCCUCUUUCACGUGCGCGUGAAAGAGAGAAGGGCACCAGAGAAACACACGUUGUGGUAUAUUACCUGGUA [U33G A35C]	0.333
GUCCUCUUUCACGUGCGCGUGAAAGAGAGAAGGGUACCAGAGAAACACACGUUGUGGUAUAUUACCUGGUA [U33G A35U]	0.16
GUCCUCUUUCACGUGCGCGUGAAAGAGAGAAGGGAACCAGAGAAACACACGUUGUGGUAUAUCACCUGGUA [U33G U63C]	0.217
GUCCUCUUUCACGUGCGCGUGAAAGAGAGAAGGGAACCAGAGAAACACACGUUGUGGUAUAUAACCUGGUA [U33G U63A]	0.126
GUCCUCUUUCACGUGCGCGUGAAAGAGAGAAGCGAACCAGAGAAACACACGUUGUGGUAUACUACCUGGUA [U33C U62C]	0.0427
GUCCUCUUUCACGUGCGCGUGAAAGAGAGAAGCGAACCAGAGAAACACACGUUGUGGUAUAGUACCUGGUA [U33C U62G]	0.0931
GUCCUCUUUCACGUGCGCGUGAAAGAGAGAAGCGAACCAGAGAAACACACGUUGUGGUAUAAUACCUGGUA [U33C U62A]	0.278
GUCCUCUUUCACGUGCGCGUGAAAGAGAGAAGGGAACCAGAGAAACACACGGUGUGGUAUAUUACCUGGUA [U33G U52G]	0.0362
GUCCUCUUUCACGUGCGCGUGAAAGAGAGAAGGGAACCAGAGAAACACACGUUGUCGUAUAUUACCUGGUA [U33G G56C]	0.0919
GUCCUCUUUCACGUGCGCGUGAAAGAGAGAAGGGAACCAGAGAAACACACGUUGUUGUAUAUUACCUGGUA [U33G G56U]	0.244
GUCCUCUUUCACGUGCGCGUGAAAGAGAGAAGCGAACCAGAGAAACACACGUUGUGGUAUAUUACCUGGAA [U33C U70A]	0.0822
GUCCUCUUUCACGUGCGCGUGAAAGAGAGAAGCGAACCAGAGAAACACUCGUUGUGGUAUAUUACCUGGUA [U33C A49U]	0.127
GUCCUCUUUCACGUGCGCGUGAAAGAGAGAAGCGAACCAGAGAAACACCCGUUGUGGUAUAUUACCUGGUA [U33C A49C]	0.148
GUCCUCUUUCACGUGCGCGUGAAAGAGAGAAGGGAACCAGAGAAACACACGUUGUGGUUUAUUACCUGGUA [U33G A59U]	0
GUCCUCUUUCACGUGCGCGUGAAAGAGAGAAGGGAACCAGAGAAACACACGUUGUGGUGUAUUACCUGGUA [U33G A59G]	0.204
GUCCUCUUUCACGUGCGCGUGAAAGAGAGAAGCGAACCAGAGAAACACACGUUGUGGAAUAUUACCUGGUA [U33C U58A]	0.0907
GUCCUCUUUCACGUGCGCGUGAAAGAGAGAAGCGAACCAGAGAAACACACGUUGUGGGAUAUUACCUGGUA [U33C U58G]	0.0694
GUCCUCUUUCACGUGCGCGUGAAAGAGAGAAGCGAACCAGAGAAACACACGUGGUGGUAUAUUACCUGGUA [U33C U53G]	0.299
GUCCUCUUUCACGUGCGCGUGAAAGAGAGAAGGAAACCAGAGAAACACACGUUGUGGUAUAUUACCUGGUA [U33G G34A]	0.317
GUCCUCUUUCACGUGCGCGUGAAAGAGAGAAGCUAACCAGAGAAACACACGUUGUGGUAUAUUACCUGGUA [U33C G34U]	0.348
GUCCUCUUUCACGUGCGCGUGAAAGAGAGAAGGGAACCAGAGAAACACACGUUGUGGUAUAUUACGUGGUA [U33G C66G]	0.0993
GUCCUCUUUCACGUGCGCGUGAAAGAGAGAAGGGAACCAGAGAAACACACGUUGUGGUAUAUUACAUGGUA [U33G C66A]	0.0596
GUCCUCUUUCACGUGCGCGUGAAAGAGAGAAGGGAACCAGAGAAACACACGUUGUGGUAUACUACCUGGUA [U33G U62C]	0.0629
GUCCUCUUUCACGUGCGCGUGAAAGAGAGAAGCGAACCAGAGAAACACACGUUGUGGUAUAUUACCUGGUU [U33C A71U]	0.144
GUCCUCUUUCACGUGCGCGUGAAAGAGAGAAGCGAACGAGAGAAACACACGUUGUGGUAUAUUACCUGGUA [U33C C38G]	0.123
GUCCUCUUUCACGUGCGCGUGAAAGAGAGAAGGGAACCAGUGAAACACACGUUGUGGUAUAUUACCUGGUA [U33G A41U]	0.251

Variant	self-cleavage
GUCCUCUUUCACGUGCGCGUGAAAGAGAGAAGGGAACCAGCGAAACACACGUUGUGGUAUAUUACCUGGUA [U33G A41C]	0.156
GUCCUCUUUCACGUGCGCGUGAAAGAGAGAAGCGAAGCAGAGAAACACACGUUGUGGUAUAUUACCUGGUA [U33C C37G]	0.0717
GUCCUCUUUCACGUGCGCGUGAAAGAGAGAAGCGAACCAGAGAAACACACGUUGUGGUACAUUACCUGGUA [U33C U60C]	0.128
GUCCUCUUUCACGUGCGCGUGAAAGAGAGAAGCGAACCAGAGAAACACACGUUGCGGUAUAUUACCUGGUA [U33C U55C]	0.173
GUCCUCUUUCACGUGCGCGUGAAAGAGAGAAGAGAACCAGAGAAACACACGUUGUGGUAUAUUACCGGGUA [U33A U67G]	0.169
GUCCUCUUUCACGUGCGCGUGAAAGAGAGAAGCGAACCAGAGAAACACACGCUGUGGUAUAUUACCUGGUA [U33C U52C]	0.177
GUCCUCUUUCACGUGCGCGUGAAAGAGAGAAGGGAACCAGAGAAACACACGUUGUGGUAUAUUACCUGCUA [U33G G69C]	0.038
GUCCUCUUUCACGUGCGCGUGAAAGAGAGAAGGGAACCAGAGAAACACACGUUGUGGUAUAUUCCCUGGUA [U33G A64C]	0.0723
GUCCUCUUUCACGUGCGCGUGAAAGAGAGAAGGGAACCAGAGAAACACUCGUUGUGGUAUAUUACCUGGUA [U33G A49U]	0.218
GUCCUCUUUCACGUGCGCGUGAAAGAGAGAAGCGAACCACAGAAACACACGUUGUGGUAUAUUACCUGGUA [U33C G40C]	0.0896
GUCCUCUUUCACGUGCGCGUGAAAGAGAGAAGUAACCCAGAGAAACACACGUUGUGGUAUAUUACCUGGUA [G34A A36C]	0.956
GUCCUCUUUCACGUGCGCGUGAAAGAGAGAAGGGAACCAGAGAAACUCACGUUGUGGUAUAUUACCUGGUA [U33G A47U]	0.105
GUCCUCUUUCACGUGCGCGUGAAAGAGAGAAGGGAACCAGAGAAACGCACGUUGUGGUAUAUUACCUGGUA [U33G A47G]	0.0744
GUCCUCUUUCACGUGCGCGUGAAAGAGAGAAGGGAACCAGAGAAACACACGUUGUGGUAUAUUACCUCGUA [U33G G68C]	0.0688
GUCCUCUUUCACGUGCGCGUGAAAGAGAGAAGCGAACCAGAGAAACUCACGUUGUGGUAUAUUACCUGGUA [U33C A47U]	0.0811
GUCCUCUUUCACGUGCGCGUGAAAGAGAGAAGCGAACCAGAGAAACACAGGUUGUGGUAUAUUACCUGGUA [U33C C50G]	0.0836
GUCCUCUUUCACGUGCGCGUGAAAGAGAGAAGCGAACCAGAGAAACACAUGUUGUGGUAUAUUACCUGGUA [U33C C50U]	0.0772
GUCCUCUUUCACGUGCGCGUGAAAGAGAGAAGGGAACCAGAGAAACACACGUUGUGGUAUAUUAACUGGUA [U33G C65A]	0.189
GUCCUCUUUCACGUGCGCGUGAAAGAGAGAAGGGAACCAGAGAAACACACGUUGUGGUAUAUUAUCUGGUA [U33G C65U]	0.0212
GUCCUCUUUCACGUGCGCGUGAAAGAGAGAAGGGAACCAGAGAGACACACGUUGUGGUAUAUUACCUGGUA [U33G A44G]	0.0996
GUCCUCUUUCACGUGCGCGUGAAAGAGAGAAGGGAACCAGAGACACACACGUUGUGGUAUAUUACCUGGUA [U33G A44C]	0.0874
GUCCUCUUUCACGUGCGCGUGAAAGAGAGAAGGGAACCAGAGAUACACACGUUGUGGUAUAUUACCUGGUA [U33G A44U]	0.23
GUCCUCUUUCACGUGCGCGUGAAAGAGAGAAGCGAACCAGAGAAACACACGUUGUGGUAUAUUACGUGGUA [U33C C66G]	0.112
GUCCUCUUUCACGUGCGCGUGAAAGAGAGAAGCGAACCAGAGAAACACACGUUGUGGUCUAUUACCUGGUA [U33C A59C]	0.198
GUCCUCUUUCACGUGCGCGUGAAAGAGAGAAGCGAACCAGAGAAACACACGUUGUGGUUUAUUACCUGGUA [U33C A59U]	0.128
GUCCUCUUUCACGUGCGCGUGAAAGAGAGAAGCGAACCAGAGAAACACACGUUGUGGUGUAUUACCUGGUA [U33C A59G]	0.083

Variant	self-cleavage
GUCCUCUUUCACGUGCGCGUGAAAGAGAGAAGGGAACCAGAGAAACACACGUUGUGGAAUAUUACCUGGUA [U33G U58A]	0.0636
GUCCUCUUUCACGUGCGCGUGAAAGAGAGAAGCGAACCAGAGAAACACACGUUGUGGUAUAUUUCCUGGUA [U33C A64U]	0.154
GUCCUCUUUCACGUGCGCGUGAAAGAGAGAAGUAAACCAGAGAAACACACGUUGUGGUAUAUUACCUGGUA [G34A]	1.21
GUCCUCUUUCACGUGCGCGUGAAAGAGAGAAGCGAACCAGAGAAACACACGUUGUGGUAUAUGACCUGGUA [U33C U63G]	0.0654
GUCCUCUUUCACGUGCGCGUGAAAGAGAGAAGGGAACCAGAGAAUCACACGUUGUGGUAUAUUACCUGGUA [U33G A45U]	0.0465
GUCCUCUUUCACGUGCGCGUGAAAGAGAGAAGCGAACCAGCGAAACACACGUUGUGGUAUAUUACCUGGUA [U33C A41C]	0.114
GUCCUCUUUCACGUGCGCGUGAAAGAGAGAAGCGAACCAGAGAAAGACACGUUGUGGUAUAUUACCUGGUA [U33C C46G]	0.187
GUCCUCUUUCACGUGCGCGUGAAAGAGAGAAGCGAACCAGAGAAAUACACGUUGUGGUAUAUUACCUGGUA [U33C C46U]	0.0782
GUCCUCUUUCACGUGCGCGUGAAAGAGAGAAGGGAACCAGAGAAACAAACGUUGUGGUAUAUUACCUGGUA [U33G C48A]	0.158
GUCCUCUUUCACGUGCGCGUGAAAGAGAGAAGCGAACCCGAGAAACACACGUUGUGGUAUAUUACCUGGUA [U33C A39C]	0.171
GUCCUCUUUCACGUGCGCGUGAAAGAGAGAAGGGACCCAGAGAAACACACGUUGUGGUAUAUUACCUGGUA [U33G A36C]	0.0918
GUCCUCUUUCACGUGCGCGUGAAAGAGAGAAGAGAACCAGAGAAACACACGUUGUGGUAUAGUACCUGGUA [U33A U62G]	0.174
GUCCUCUUUCACGUGCGCGUGAAAGAGAGAAGGGAACAAGAGAAACACACGUUGUGGUAUAUUACCUGGUA [U33G C38A]	0.139
GUCCUCUUUCACGUGCGCGUGAAAGAGAGAAGGGAACUAGAGAAACACACGUUGUGGUAUAUUACCUGGUA [U33G C38U]	0.204
GUCCUCUUUCACGUGCGCGUGAAAGAGAGAAGGGAACGAGAGAAACACACGUUGUGGUAUAUUACCUGGUA [U33G C38G]	0.128
GUCCUCUUUCACGUGCGCGUGAAAGAGAGAAGCGAACCAGACAAACACACGUUGUGGUAUAUUACCUGGUA [U33C G42C]	0.0894
GUCCUCUUUCACGUGCGCGUGAAAGAGAGAAGCGAACCAGAUAAACACACGUUGUGGUAUAUUACCUGGUA [U33C G42U]	0.115
GUCCUCUUUCACGUGCGCGUGAAAGAGAGAAGCGAACCAGAGAAACACACGUUUUGGUAUAUUACCUGGUA [U33C G54U]	0.141
GUCCUCUUUCACGUGCGCGUGAAAGAGAGAAGCGAACCAGAGAAACACACGUUAUGGUAUAUUACCUGGUA [U33C G54A]	0.0427
GUCCUCUUUCACGUGCGCGUGAAAGAGAGAAGCGAACCAGAGAAACACACGUUCUGGUAUAUUACCUGGUA [U33C G54C]	0.163
GUCCUCUUUCACGUGCGCGUGAAAGAGAGAAGGGAACCAGAGAAACACACGUUGUGGUACAUUACCUGGUA [U33G U60C]	0.195
GUCCUCUUUCACGUGCGCGUGAAAGAGAGAAGGGAACCAGAGAAACACACGUUGUGGUAUAUUACCUGGAA [U33G U70A]	0.121
GUCCUCUUUCACGUGCGCGUGAAAGAGAGAAGCGAACCAGAGAAACACACGUUGUGCUAUAUUACCUGGUA [U33C G57C]	0.0819
GUCCUCUUUCACGUGCGCGUGAAAGAGAGAAGGGAACCAGAAAAACACACGUUGUGGUAUAUUACCUGGUA [U33G G42A]	0.0778
